Experimental data from patent US20240228599A1 (Sanofi, published 2024).

Key:
[1] = biological target: T1, cynomolgus monkey Factor Bb (cynomolgus monkey); experiment: ELISA; cynomolgus Factor Bb coated at 5 µg/mL, mAb in 3-fold dilutions from 10 µg/mL; EC50 by Prism according to the text, headed 'Binding Affinity (M)' on the sheet
T1 chain: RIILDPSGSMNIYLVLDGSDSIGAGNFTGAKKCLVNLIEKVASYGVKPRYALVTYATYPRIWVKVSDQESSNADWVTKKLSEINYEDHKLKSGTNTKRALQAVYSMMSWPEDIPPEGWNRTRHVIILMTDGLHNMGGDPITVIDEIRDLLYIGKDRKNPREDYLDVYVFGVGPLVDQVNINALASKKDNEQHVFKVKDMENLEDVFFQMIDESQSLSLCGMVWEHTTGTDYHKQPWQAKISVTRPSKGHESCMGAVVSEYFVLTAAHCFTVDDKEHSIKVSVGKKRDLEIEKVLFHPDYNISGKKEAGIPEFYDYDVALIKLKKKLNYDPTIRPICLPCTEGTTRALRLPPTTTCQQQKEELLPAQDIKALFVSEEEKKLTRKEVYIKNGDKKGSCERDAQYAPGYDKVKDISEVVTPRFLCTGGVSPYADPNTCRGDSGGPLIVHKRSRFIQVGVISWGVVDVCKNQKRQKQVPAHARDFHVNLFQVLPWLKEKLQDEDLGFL
Protocol: (§1) The relative EC₅₀ values for factor Bb mAbs were determined by ELISA. Unlabeled purified human Factor Bb (Complement Technologies; 1 μg/mL) was coated onto a high binding ELISA plate, and incubated with increasing amounts of purified mAbs (3-fold serial dilutions starting at 10 μg/mL). Horse radish peroxidase (HRP)-conjugated goat anti-mouse secondary antibody (Southern Biotech) was used for detection, and reacted with 3,3′,5,5′-Tetramethylbenzidine (TMB) 1-Step Ultra TMB-ELISA Substrate Solution (Thermo Scientific). Reactions were stopped with an equal volume of 1N sulfuric acid; and absorbance at OD₄₅₀ₙₘ was measured.
(§2) Factor Bb mAbs were assayed for their ability to bind to cynomolgus monkey Factor B or Factor Bb by ELISA. 5 μg/mL of each purified protein (Innovative Research; purified in-house) was coated onto ELISA plates, incubated with purified factor Bb mAbs (3-fold serial dilutions starting at 10 μg/mL), and bound antibody was detected as in Example 2.

[2] = biological target: T2, purified human Factor Bb (human, UniProt P00751 260-764); experiment: ELISA on coated human Factor Bb; EC50 calculated with PRISM from the curves of FIG. 1
T2 construct: Bought purified protein (Complement Technologies); also called fBb; complement factor Bb
Protocol: as §1
Target sequence in this assay (P00751 260-764 limits assumed): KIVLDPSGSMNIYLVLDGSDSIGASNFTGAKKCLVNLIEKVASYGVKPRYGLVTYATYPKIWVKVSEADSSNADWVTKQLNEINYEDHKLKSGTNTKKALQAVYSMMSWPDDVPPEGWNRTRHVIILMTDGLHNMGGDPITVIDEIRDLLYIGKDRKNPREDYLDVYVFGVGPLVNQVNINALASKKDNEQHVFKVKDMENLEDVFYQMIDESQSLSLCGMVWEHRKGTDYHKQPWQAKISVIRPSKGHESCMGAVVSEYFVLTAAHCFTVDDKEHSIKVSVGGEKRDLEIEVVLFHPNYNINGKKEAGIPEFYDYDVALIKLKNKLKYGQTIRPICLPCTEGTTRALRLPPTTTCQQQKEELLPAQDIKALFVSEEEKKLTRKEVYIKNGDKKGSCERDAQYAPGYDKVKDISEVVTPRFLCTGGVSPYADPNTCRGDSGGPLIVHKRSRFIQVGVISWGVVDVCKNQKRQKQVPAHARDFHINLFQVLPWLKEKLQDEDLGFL

[3] = biological target: T3, full-length Factor B (UniProt P00751 26-764); experiment: antigen-capture ELISA, antibody on goat anti-mouse IgG plate
T3 construct: Biotinylated in the antigen-capture ELISA, unlabeled in SEC; also called Factor B zymogen; FB
Protocol: (§3) Preferential binding of factor Bb antibodies to activated factor B versus full length Factor B zymogen was determined in an optimized antigen-capture ELISA format to evaluate binding to target soluble proteins. 1 μg/mL of antibody was bound to goat anti-mouse IgG coated plates (Pierce; Thermo Scientific), followed by incubation with 1 μg/mL biotinylated factor Bb or factor B (Complement Technologies). Bound factor Bb/B proteins were detected with streptavidin-HRP and reacted with TMB 1-Step Ultra TMB-ELISA Substrate Solution (Thermo Scientific). Reactions were stopped with an equal volume of 1N sulfuric acid; and absorbance at OD₄₅₀ₙₘ was measured. The ratio of absorbance of binding by Factor Bb versus Factor B (fBb/B ratio) was calculated and the results are shown in FIG. 3.

[4] = biological target: T2, purified human Factor Bb; experiment: antigen-capture ELISA; mAb at 1 µg/mL on goat anti-mouse IgG plates, 1 µg/mL biotinylated Factor Bb or Factor B, streptavidin-HRP; OD450 with Factor Bb divided by OD450 with Factor B
Protocol: as §3

[5] = biological target: T4, cynomolgus monkey Factor Bb (cynomolgus monkey); experiment: ELISA; cynomolgus Factor Bb coated at 5 µg/mL, mAb in 3-fold dilutions from 10 µg/mL; EC50 by Prism according to the text, headed 'Binding Affinity (M)' on the sheet
T4 construct: In the serum assays the target is the factor B/Bb of cynomolgus serum; also called cyno Factor Bb
Protocol: as §1, §2

[6] = biological target: T2, purified human Factor Bb; experiment: antigen-capture ELISA; mAb at 1 µg/mL on goat anti-mouse IgG plates, 1 µg/mL biotinylated Factor Bb or Factor B, streptavidin-HRP; OD450 with Factor Bb divided by OD450 with Factor B; the text rounds this to 5.5
Protocol: as §3

[7] = biological target: T2, purified human Factor Bb; experiment: antigen-capture ELISA, ratio of absorbance with biotinylated Factor Bb to that with Factor B
Protocol: as §3
Target sequence in this assay (P00751 260-764 limits assumed): as above

[8] = biological target: T4, cynomolgus monkey Factor Bb; experiment: cell-based or functional assay
[9] = biological target: T2, purified human Factor Bb; experiment: cell-based or functional assay
[10] = biological target: T2, purified human Factor Bb; experiment: ELISA; human Factor Bb coated at 1 µg/mL, mAb in 3-fold dilutions from 10 µg/mL, HRP goat anti-mouse, OD450
Protocol: as §1
Target sequence in this assay (P00751 260-764 limits assumed): as above

B1: anti-factor Bb monoclonal antibody M17 (antibody, V domains shown)
VH: EVQLVESGGVLVKPGGSLKLSCAASGFTFSNFAMSWVRQTPAKRLEWVATISNGGGYTYYPDSVQGRFTISRDNANNTLYLQMSSLRSEDTALYYCARIYYGSSYEDWFAYWGQGTLVTVSA
VL: DIVMTPSHKFMSTSVGDRVSITCKASQDVGSAVAWYQQKPGHSPKLLIFWASTRHTGVPDRFTGSGSGTDFTLTISNVQSEDLADYFCQQYSSYPYTFGGGTRLEIK
notes: Mouse monoclonal purified from hybridoma supernatant
- EC50 [1]: ~2.64 nM
- EC50 [2]: 3.14 nM
- binding result [3]: no binding (tested: 1 µg/mL biotinylated factor B)
- Ratio OD fBb/fB (ELISA) [4]: 70.7

B2: anti-factor Bb monoclonal antibody M10 (antibody, V domains shown)
VH: EVQLVESGGALVKPGGSLKLSCAASGFTFSNYAMSWVRQTPEKRLEWVATISNRGSYTYYPDSVKGRFTISRDNAKNTLYLQMSSLRSEDTALYYCARERPMDYWGQGTSVTVSS
VL: DIVMTQSHKFMSTSVGDRVSITCKASQDVGTAVAWYQQKPGQSPKLLIYWASTRHTGVPDRFTGSGSGTDFTLTITNVQSEDLAVYFCHQHSSNPLTFGAGTKLELK
notes: as for B1
- EC50 [5]: 0.488 nM
- EC50 [2]: 0.335 nM
- Ratio OD fBb/fB (ELISA) [6]: 5.49
- fBb/B ratio [7]: 5.5
- IC50, Wieslab AP activity, 5.5% cynomolgus monkey serum [8]: 367 nM
- IC50, hemolysis of rabbit RBCs by 5% cynomolgus monkey serum [8]: 220 nM
- IC50, Wieslab AP activity, 5.5% normal human serum [9]: 97.9 nM
- EC50 (read off the curve) [10]: ~0.3 nM

B3: anti-factor Bb monoclonal antibody M18 (antibody, V domains shown)
VH: B2 VH
VL: B2 VL
notes: as for B1
- EC50 [5]: 0.449 nM
- EC50 [2]: 0.336 nM
- fBb/B ratio [7]: 8.4
- IC50, hemolysis of rabbit RBCs by 5% cynomolgus monkey serum [8]: 232 nM
- EC50 (read off the curve) [10]: ~0.3 nM

B4: anti-factor Bb monoclonal antibody M4 (antibody, V domains shown)
VH: EVQLQQSGPELVKPGASVKMSCKASGYSFTDYLMNWVKQSHGKSLEWIGRINPYNGDAFYNQRFKGKATLTVDKSSSTAHMELRSLTSEDSALYYCARLENDYGFTYWGQGTLVTVSA
VL: DIVMTQAAFSNPVTLGTSASISCSSSKSLLHSNGITYLYWYLQRPGQSPQLLIYRMSNLASGVPDRFSGSGSGTDFTLRISRVEAEDVGVYYCAQMLERPWTFGGGTKLEIK
notes: Mouse monoclonal purified from hybridoma supernatant; also called Factor B/Bb antibody M4
- EC50 [2]: 0.874 nM
- Ratio OD fBb/fB (ELISA) [4]: 0.59
- fBb/B ratio [7]: ≥ 1
- IC50, hemolysis of rabbit RBCs by 5% cynomolgus monkey serum [8]: 25 nM
- EC50 (read off the curve) [10]: ~0.8 nM

B5: anti-factor Bb monoclonal antibody M12 (antibody, V domains shown)
VH: B4 VH
VL: B4 VL
notes: as for B1
- EC50 [5]: 2.55 nM
- EC50 [2]: 0.761 nM
- Ratio OD fBb/fB (ELISA) [4]: 0.82
- fBb/B ratio [7]: ≥ 1
- IC50, hemolysis of rabbit RBCs by 5% cynomolgus monkey serum [8]: 28.2 nM
- EC50 (read off the curve) [10]: ~0.7 nM
